# From FireProtDB (doi:10.1002/cbic.201402128)
# B1: Haloalkane dehalogenase, D4Z2G1 (parent)
# chain: MSLGAKPFGEKKFIEIKGRRMAYIDEGTGDPILFQHGNPTSSYLWRNIMPHCAGLGRLIACDLIGMGDSDKLDPSGPERYAYAEHRDYLDALWEALDLGDRVVLVVHDWGSALGFDWARRHRERVQGIAYMEAIAMPIEWADFPEQDRDLFQAFRSQAGEELVLQDNVFVEQVLPGLILRPLSEAEMAAYREPFLAAGEARRPTLSWPRQIPIAGTPADVVAIARDYAGWLSESPIPKLFINAEPGALTTGRMRDFCRTWPNQTEITVAGAHFIQEDSPDEIGAAIAAFVRRLRPA
# Variants of: B1
# Settings: Sphingobium indicum (strain DSM 16413 / CCM 7287 / MTCC 6362 / UT26 / NBRC 101211 / UT26S); pH 7.5; Thermal; fluorescence; Na-Hepes 50 mM; reversible: no; structure 1MJ5; whole UniProt chain shown
Variant,Tm [°C],"change of melting temperature, mutant - wild type (higher = more stable) [°C]"
MSLGAKPFGEKKFIEIKGRRMAYIDEGTGDPILFQHGNPTSSYLWRNIMPHCAGLGRLIACDLIGMGDSDKLDPSGPERYAYAEHRDYLDALWEALDLGDRVVLVVHDWGSALGFDWARRHRERVQGIAYMEAIAMPIEWADFPEQDRDLFQAFRSQAGEELVLQDNVFVEQVLPGLILRPLSEAEMAAYREPFLAAGEARRPTLSWPRQIPIAGTPADVVAIARDYAGWLSESPIPKLFINAEPGFLTTGRMRDFCRTWPNQTEITVAGAHFIQEDSPDEIGAAIAAFVRRLRPA [A247F],67.5,16.5
MSLGAKPFGEKKFIEIKGRRMAYIDEGTGDPILFQHGNPTSSYLWRNIMPHCAGLGRLIACDLIGMGDSDKLDPSGPERYAYAEHRDYLDALWEALDLGDRVVLVVHDWGSALGFDWARRHRERVQGIAYMEAIAMPIEWADFPEQDRDLFQAFRSQAGEELVLQDNVFVEQVLPGLILRPLSEAEMAAYREPFLAAGEARRPTLSWPRQIPIAGTPADVVAIARDYAGWLSESPIPKLFINAIPGALTTGRMRDFCRTWPNQTEITVAGAHFIQEDSPDEIGAAIAAFVRRLRPA [E244I],50,-1
MSLGAKPFGEKKFIEIKGRRMAYIDEGTGDPILFQHGNPTSSYLWRNIMPHCAGLGRLIACDLIGMGDSDKLDPSGPERYAYAEHRDYLDALWEALDLGDRVVLVVHDWGSALGFDWARRHRERVQGIAYMEAIAMPIEWADFPEQDRDLFQAFRSQAGEELVLQDNVFVEQVLPGLILRPLSEAEMAAYREPFLAAGEARRPTLSWPRQIPIAGTPADVVAIARDYAGWLSESPIPKLFINAVPGALTTGRMRDFCRTWPNQTEITVAGAHFIQEDSPDEIGAAIAAFVRRLRPA [E244V],50.5,-0.5
MSLGAKPFGEKKFIEIKGRRMAYIDEGTGDPILFQHGNPTSSYLWRNIMPHCAGLGRLIACDLIGMGDSDKLDPSGPERYAYAEHRDYLDALWEALDLGDRVVLVVHDWGSALGFDWARRHRERVQGIAYMEAIAMPIEWADFPEQDRDLFQAFRSQAGEELVLQDNVFVEQVLPGLILRPLSEAEMAAYREPFLAAGEARRPTLSWPRQIPIAGTPADVVAIARDYAGWLSTSPIPKLFINAEPGALTTGRMRDFCRTWPNQTEITVAGAHFIQEDSPDEIGAAIAAFVRRLRPA [E233T],51.5,0.5
MSLGAKPFGEKKFIEIKGRRMAYIDEGTGDPILFQHGNPTSSYLWRNIMPHCAGLGRLIACDLIGMGDSDKLDPSGPERYAYAEHRDYLDALWEALDLGDRVVLVVHDWGSALGFDWARRHRERVQGIAYMEAIAMPIEWADFPEQDRDLFQAFRSQAGEELVLQDNVFVEQVLPGLILRPLSEAEMAAYREPFLAAGEARRPTLSWPRQIPIAGTPADVVAIARDYAGWLSSSPIPKLFINAEPGALTTGRMRDFCRTWPNQTEITVAGAHFIQEDSPDEIGAAIAAFVRRLRPA [E233S],51.5,0.5
MSLGAKPFGEKKFIEIKGRRMAYIDEGTGDPILFQHGNPTSSYLWRNIMPHCAGLGRLIACDLIGMGDSDKLDPSGPERYAYAEHRDYLDALWEALDLGDRVVLVVHDWGSALGFDWARRHRERVQGIAYMEAIAMPIEWADFPEQDRDLFQAFRSQAGEELVLQDNVFVEQVLPGLILRPLSEAEMAAYREPFLAAGEARRPTLSWPRQIPIAGTPADVVAIARDYAGWLSESPIPKLFINAEPGALLTGRMRDFCRTWPNQTEITVAGAHFIQEDSPDEIGAAIAAFVRRLRPA [T249L],62.5,11.5
MSLGAKPFGEKKFIEIKGRRMAYIDEGTGDPILFQHGNPTSSYLWRNIMPHCAGLGRLIACDLIGMGDSDKLDPSGPERYAYAEHRDYLDALWEALDLGDRVVLVVHDWGSALGFDWARRHRERVQGIAYMEAIAMPIEWADFPEQDRDLFQAFRSQAGEELVLQDNVFVEQVLPGLILRPLSEAEMAAYREPFLAAGEARRPTLSWPRQIPIAGTPADVVAIARDYAGWLSESPIPKLFINAEPGALMTGRMRDFCRTWPNQTEITVAGAHFIQEDSPDEIGAAIAAFVRRLRPA [T249M],60.5,9.5
MSLGAKPFGEKKFIEIKGRRMAYIDEGTGDPILFQHGNPTSSYLWRNIMPHCAGLGRLIACDLIGMGDSDKLDPSGPERYAYAEHRDYLDALWEALDLGDRVVLVVHDWGSALGFDWARRHRERVQGIAYMEAIAMPIEWADFPEQDRDLFQAFRSQAGEELVLQDNVFVEQVLPGLILRPLSEAEMAAYREPFLAAGEARRPTLSWPRQIPIAGTPADVVAIARDYAGWLSESPIPKLFINAEPGALVTGRMRDFCRTWPNQTEITVAGAHFIQEDSPDEIGAAIAAFVRRLRPA [T249V],60,9
MSLGAKPFGEKKFIEIKGRRMAYIDEGTGDPILFQHGNPTSSYLWRNIMPHCAGLGRLIACDLIGMGDSDKLDPSGPERYAYAEHRDYLDALWEALDLGDRVVLVVHDWGSALGFDWARRHRERVQGIAYMEAIAMPIEWADFPEQDRDLFQAFRSQAGEELVLQDNVFVEQVLPGLILRPLSEAEMAAYREPFLAAGEARRPTLSWPRQIPIAGTPADVVAIARDYAGWLSESPIPKLFINAEPGAWTTGRMRDFCRTWPNQTEITVAGAHFIQEDSPDEIGAAIAAFVRRLRPA [L248W],62,11
MSLGAKPFGEKKFIEIKGRRMAYIDEGTGDPILFQHGNPTSSYLWRNIMPHCAGLGRLIACDLIGMGDSDKLDPSGPERYAYAEHRDYLDALWEALDLGDRVVLVVHDWGSALGFDWARRHRERVQGIAYMEAIAMPIEWADFPEQDRDLFQAFRSQAGEELVLQDNVFVEQVLPGLILRPLSEAEMAAYREPFLAAGEARRPTLSWPRQIPIAGTPADVVAIARDYAGWLSESPIPKLFINAEPGAFTTGRMRDFCRTWPNQTEITVAGAHFIQEDSPDEIGAAIAAFVRRLRPA [L248F],61.5,10.5
